According to the DeepSol protein solubility set:

Experiment: soluble on expression in E. coli; label from the status in PepcDB or PDB records

| Sequence | soluble on expression in E. coli |
| --- | --- |
| LYQHMQQQIQVQAAQNIALQDQLQQALIVPNQRIAQLEQQQLSDAKTFQELSKLATDQSQLQDRLNKLAQRSPTHWMASEAEYLVNMAGRKLWLEKDPRTATDLLKSADETIAAMNNPALLPIRKALAKDIAATTNLKSADIEGSVLALDALIGQLDKLPLNRADGEASTAEDTTISGDLNDWQSNLSKTWKALTQDFITIRHRTADVPALLAPDQQWYLVENIRHKLLQSQLALYRYDRAAYHQSLMMARQWIQSYFDVQAHQTSEAIAAIDKLATLELDPITLKAFEAKPLLLQLTSYGELTSLEEPQL | not soluble |
| STLSRFAYNGKRCPSSYNILDNSKIISEECRKELTALLHHYYPIEIDPHRTVKEKLPHMVEWWTKAHNLLCQQKIQKFQIAQVVRESNAMLREGYKTFFNTLYHNNIPLFIFSAGIGDILEEIIRQMKVFHPNIHIVSNYMDFNEDGFLQGFKGQLIHTYNKNSSVCENCGYFQQLEGKTNVILLGDSIGDLTMADGVPGVQNILKIGFLNDKVEERRERYMDSYDIVLEKDETLDVVNGLLQHILCQGVQLEMQGP | soluble |
| MSLYYICPYFLDKNGHRVQKTMVGKVALDEQKLTPQKFSITYPLIINLQDEKVKTKVNEDIVNQVSELFKNQVLLTEKIDLSEVFGAYEIGVNRNYILSILFSIYTYMNRAAHGLTVYSSITVNTRTGKVYSFSDLFNPKMNYLGELTTIVKKYIKDNNIQLIEDYKGVTNDQEFYLTNDKLVLYYQVYAYTPYYYGLFRIPIPYTEIKNLLGPMSPINNLIEGHHHHHH | not soluble |
| MRTRLLAILLAVWPAACATAEPACRDLTFEDTRYSLCEAQAGDDIRIFQTAPDGRPYGSFERINSALEGEGRQLAFAMNAGMYHADRRPVGLLIEEEVERAPLVTSAGPGNFGLLPNGVFCVGDGFRVIESRAFAAERPTCRHASQSGPMLVIGGELHPRFLVDSDSRYIRNGVGVSADGRRAVFAISNRPVTFHEFGRLFRDELGLPEALYFDGSISRLYDRGARRSDWGTPMGPIVGLVVPKPLEHHHHHH | not soluble |
| MGSDKIHHHHHHMDLLELKAFVFAVQTGSITQAAFQLGRVQSSVSLRIKQLETELGVELLSRDRGGVRTTARGQILYDYATRILALAQEAKGEVMSPNTGEIVRLGTIETISPDCIDSLVRLLSGFDGMGVDVYVDGALSLVESLREGRIHAAIVGAGFAPPECIRIPLYGEAMVLISSLKYPRIDLVNQIANEIFLVCKKESACSRHLAMLFMEGGFQPARISECGSFSILMSSVVRGMGIALVPLSAVLGSAHEKQVLIHPLSGHFSTFQVEFVCPQPKGRPILERLIEKISQEFVGQKPN | not soluble |
| MGSFQAVAPTRLYRMIADQIAGRIRAGDFPAGGRLPAERELAEQLQVSRASVREALIALEIEGYVEVRVGTGVFVAAPRADGDYGVAPAPQPGHTDIGPFDLLDTRLLLEPECASLAAQKASPAQIAAISSAHAAMSLSDSPGAHDQAFHGAIAAACGNAALAAAISHIWHLSATSPVFSRLEQHFVTTKVWEAAEREHERILAAIVDRDPIRARHAMHDHLVGILARLREDFGSGAIR | not soluble |
| RHMRIAVIGGGSSYTPELVKGLLDISEDVRIDEVIFYDIDEEKQKIVVDFVKRLVKDRFKVLISDTFEGAVVDAKYVIFQFRPGGLKGRENDEGIPLKYGLIGQETTGVGGFSAALRAFPIVEEYVDTVRKTSNATIVNFTNPSGHITEFVRNYLEYEKFIGLCNVPINFIREIAEMFSARLEDVFLKYYGLNHLSFIEKVFVKGEDVTEKVFENLKLKLSNIPDEDFPTWFYDSVRLIVNPYLRYYLMEKKMFKKISTHELRAREVMKIEKELFEKYRTAVEIPEELTKRGGSMYSTAAAHLIRDLETDEGKIHIVNTRNNGSIENLPDDYVLEIPCYVRSGRVHTLSQGKGDHFALSFIHAVKMYERLTIEAYLKRSKKLALKALLSHPLGPDVEDAKDLLEEILEANREYVKLG | soluble |
| MKKLLIMLIRFYQRYISPLKPPTCRFTPTCSNYFIQALEKHGLLKGTFLGLRRILRCNPLSKGGYDPVPEEFSFKPRRRWS | soluble |
| MSLARSVVVSAEAVYSHEGEYVGDHVLVDEGLVKSISRGEPHVSVGKRVAVKGFLLPPLVDAHLHMRSLGASFRIVNLKGASSPEEVAKRLAAANSPIAVGRGWNEEEFRPGSRLDRRILDSYLGEKPALAVRICGHVAVANSAFIRESGVDKLFPNLVDRERGLLLEDAVSYAVSVAMKTYNNEELLRDAASALASVGVFGVSSMACSEEEVRALSLIGDALEVRVACYLRRGVEPPPKRAGARWSIVGVKLFADGSLGGRTAYLRRPYISGENEGWRGLKLLSSRDIAEEAVSNSHRGLATAVHAIGDAALDEVLEGFSNAISRGVEPGMLRVEHASLAWPNQIDRLASLRVWTVVQPLFRVSDWWLESRVGSDMLQAAYPFASMLRAGVKLALSTDAPVETYDPAETFKAAVGLCSSRLCRESESLTPRETLKLYTLNSALASGGPVAWLGRLRRGAPALFAVANVDVLNSGRKELEKLKFRGLNLAKEGHHHHHH | soluble |
| MSLIIMKAITVLSGGLDSTVVTLIAKDLGYEVTAITFNYGQRAAKREINSAKKICEILGIEHIVVDLPFVKQFGKSSLITEKEIPTLKMEELDSEKAYETMKAVWVPARNVIMFGIASGFAEALDAEKIFIGINKEEGVTFPDNTIEFVEAFNKVLEYGTLNKVKIEAPLYDKTKEEIVKLGAELEKKLGVEVLKYSYSCYHDNGEDFLHCGKCESCMRRKRAFLMAGVEDKTKYIEEGHHHHHH | soluble |
| MSLGQDIGFYLGRIDSEMDSWVADPDEALKASNKLFFLNPFQANKVGIKGKANSNPNTQLSGDTGEGKSFAAKLIHLYSSFLKVKTLYIDPKLEMEANYKRVLKEFEEQDVYPEIQKYIRSLSFATLDSTKNENLGVLDPLVFLPKKRAKGLIVSMIGELIKYDSHISFKTELSHQLSLFADRRARGEQVGTLTVLKELYNHSERQDVRDTAESLIEDIKDSILGLVFSDGKNQAVDLNARNVILGVSGLDLPQDDSIVHSDLTLQQRYSLVIMYALGEFVIQFAERDYKEHTLEIVDEAWFLETSAVGRGIFNRMKRLNRRFNNFLYFVSQEIDDSNRGKDEKTAFGSYFCFRNDDSTKVDSILRRLGVQPTEESRKWFDNLSLGQCLYRDSANRVERVTFDGLFPEVKELFKTVENDSLEGHHHHHH | soluble |
| MGSDKIHHHHHHMTLKITKSDEVIEVKNLCVTIYSQPGLGKTSLAFTASRPLLLDFDKGAHRAVDRKDVVQVEDWRDVAGISAGDLAAYDTIVIDTVGKALDTLSADIIRANSKLSYGGALNQQGWGQLGVRFSAFLKLLRSFGKDVVLISHMDEKADGDAIKERLKISGGSKDLVLTDSDVIARISIYNRERHLIFSPTETSFGKDPANIGAMPIPEASAETYATCLSDIITQIKEGMNALSEEQVQRKAEIDWFATKLPEMTSAEEINGVLGRAKKAGKDIQKMVVARAKELGFDFDPEAREYVDPSAALADELDDEIPEFDDADEPESPAMAAE | not soluble |
| MDLAKLGLKEVMPTKINLEGLVGDHAFSMEGVGEGNILEGTQEVKISVTKGAPLPFAFDIVSVAFGYGNRAYTGYPEEISDYFLQSFPEGFTYERNIRYQDGGTAIVKSDISLEDGKFIVNVDFKAKDLRRMGPVMQQDIVGMQPSYESMYTNVTSVIGECIIAFKLQTGKHFTYHMRTVYKSKKPVETMPLYHFIQHRLVKTNVDTASGYVVQHETAIAAHSTIKKIEGSLPVDHHHHHH | soluble |
| QWGSMRMPSDRISSGMAFSSVAQEAGFQNDDIILAVDGRPVDALASGFMRSVIQARQVEVLRQGRREIVHVPHDMMKRVLKANSGFMSIQVPFVIDSVMPQGTAYACQLKAGDSITAVNGKLMPDASDVIGAIRSHAGDTIALSIARAGEELTITLPVDTGGLIGVSLRPLDAIYTIDHIRYSLFEAIPAGIAQGMGTMRSYVSDMKYVFTKEGAGQIGGFGTLGSLFPASWNWPQFWAMTALLS | not soluble |
| MDGDFRTDFVREPGALKHHPALVLNADYRPLSYYPLSLWPWQEAIKAAWLDRVDIIAEYDEVVRSPSVVLRIPSVVVLKDYVKPQKRVAFTRFNLFLRDEFRCQYCGGKGDLTFDHVVPRAAGGVTSWENVVAACAPCNLRKGSKSLRQANMSLRRPPRRPQAEELQNVGRKFPPNHLHESWMDFLYWDAELDALEHHHHHH | not soluble |
| DNAVGPPASAPPPPSVPVAKALSRTLAPTAEFTGFLAAPETVELRSRVGGTLDAISVPEGRLVSRGQLLFQIDPRPFEVALDTAVAQLRQAEVLARQAQADFDRIQRLVASGAVSRKNADDVTATRNARQAQMQSAKAAVAAARLELSWTRITAPIAGRVDRILVTRGNLVSGGVAGNATLLTTIVSHNPMYVYFDIDEATWLKALRHTRSDKNPPVVNMGLTTDNGLPYQGVLDFMGNQMNRSTGTIRARAVIPDPDGMLSPGLFARISLPIGEPRETVLIDDLAVSADQGKNYVLIVGKENQVEYRPVELGQMVD | not soluble |
| MGSDKIHHHHHHMATLYLIEQGAEIGCDGERIVVRRAGEIIGSVPLVKVDDIVIFGNIGISTPAIKRLLDRSIEVTFMTVDGSYQGRLVGQVTAHVALRQAQYACAADSDRTLRLAQSFVEGKLRNQRALLQRFSRNRATPPAEALAAADDLDAYIKRVRRTTRLSALLGVEGSATARYFAGLRSLIEPEWDFRSRQRRPPPDPVNLLLSFGYTLLTHKTLGAVQAAGFDPYLGFLHSLDYGRPSLALDLMEEFRPLLIDSLVVRVCNDGRLRLEHFQPGDEARPVIITDEGKRAFLTAFEERMRTEATHPEGADSGPGKVTYQRCIALQARRLARVIRGQQERYEPFTAR | not soluble |
| MENKTLDHTLQGAPLWLTNFVLVYQKLSKENLQLLATIYHENVTFIDPLHTVEGFDDLYQYFENLYQNLSACDFVIEEVIWQDSQASLFWTMTYQHPKLNKGKMVTVVGTSHIKGEGDKVIYHRDFLDLGAMLYEQLPILGKLTKWIKTKAAN | not soluble |
| MTFLFDCLILLNILIATCQAIGRTQSTAIEGVLLCEDGPAKGVLIKLYDHDTVSPDELMDSAKTDADGHFRLSGTADEISGIEPKINIYHDCDDGILPCQRRITIFVPSKYVSNTKQPSETFNLGRLQLAGKYAGESRDCLH | soluble |
| MRPTITALVLTYNGERLLDRCLGSLAFCDRILVVDSFSTDATVAIAQAAGAEVLQRKWEGPGPQFAFALEKISDGWIVSLDQDEICSEELRDSILAATAADSGEAGYWIPRRSWYFDRFLKHSGWYPDHLLRLFRAGRMRVEVSGAHYSFHPDGETGTLTGDILHYPYESFRQHLDKVNDYAQKGADDLRAKGKRGGLCAGLCHGAGRFIRIYIIKRGFLDGRAGFINAIHGAFYAFLKHLRIEEGDWGRPFEHKLEHHHHHH | soluble |
| AQRVKDRPDGDTRRSELTMKLINKRGAVRERKLISYSIDMGKDKKDKKTIMFFLYPGDVKGTGFLTWDYDQIGKDDDKWLYLPAMKKTRRISGASAKKDYFMGSDFTYDDMGSRNVDEDTHKLLGEETFDGHKCWKLESTSKDQRDVFSKKIAWIRQDCLIPVRVEYYDRMNRLHRLLELSDIAQVDGFWMAQKMNMSNVQTGHRTVLEIKKPEFNRPIDESKFTVTSLEK | not soluble |
| MGSDKIHHHHHHMNKIAVIGKVFVDIKGTSFAPLHKDAKNVGDITFSNGGTGRNVAQNLAVLGNDVRFISTVTNDQIGVGVLEELKSYGANVDHVEMLEDHGMGMWLAVMDNEGDLQTSISKQPDAKLLEEAILRQSVYALDGVDAVAIDLDLSVTVLERLIHICRKMELPLYGVCGHLSVIERNRHLLQGFTGFICSREEAEILSDLSIVTVEDAIHVANELAKKGAPFTVVTMSELGAVYVDRRTATSGHVGTKKVKVVDSTGAGDSFFSAVLSELTESKRAEEALQLGMKVAAQVIASTENGLIPEMLETLR | not soluble |
